Our source for the Km, kcat and kcat/Km values is PMC4462073, “Insights into the evolution of enzyme substrate promiscuity after the discovery of (βα)8 isomerase evolutionary intermediates from a diverse metagenome” (BMC Evolutionary Biology, 2015).

Substrate in this data set: NC(=O)c1ncn([C@@H]2O[C@H](COP(=O)(O)O)[C@@H](O)[C@H]2O)c1N=CN[C@@H]1O[C@H](COP(=O)(O)O)[C@@H](O)[C@H]1O
The experiment in a line: purified protein. Format: biochemical, Acidimicrobium ferrooxidans.

B1: HisA_Afer (Acidimicrobium ferrooxidans DSM 10331) (protein)
chain: MELVVAVDLLDGEAVRLRQGRFDAPRRFGDPRRYVEGALDAGARWFHVVDLDRARTPGDRRNADMVGDLIALVREAGGSVEVGGGVRTARDIAELLETGASRVVLGTALVEETLDELDPEHLVAALDYRRGDEGALEVVVSAWERSGGRRLLEASARLFARGVRTQLLTDVGRDGMASGPDLGTYQGLCEVVPVEVIASGGVASADDLAKLAAIRGARGAVWGAVVGTALLDGSLGFDEALSACRA
notes: codon-optimised synthetic gene in pET22b (NdeI/HindIII), expressed in E. coli, purified
As usually defined, the Km is the concentration of substrate that gives half-maximal velocity. Usually kcat stands for the maximal rate divided by the concentration of active sites. In general, kcat/Km refers to the turnover number divided by the Michaelis constant. In the case of B1, the Km is 1.1 ± 0.2 µM, the kcat was determined as 0.05 ± 0.001 s⁻¹ and the kcat/Km is 45000 M⁻¹ s⁻¹.
